The values below come from article PMC2172197.

Read-outs that look alike come from different tables or passages of the source.

Assay [1] concerns the target pFd-protAHis (preferredoxin fused to Staphylococcal protein A, COOH-terminal hexahistidine tag). Nature of the assay: pull-down.
Assay [2] shares this target. Nature of the assay: pull-down. The source holds these as a separate data set.

Regarding “[35S]atToc159 (in vitro-translated soluble atToc159) (from UniProt O81283 1-1503) (receptor)”, the percent reduction of binding against GTP in assay [1] and in assay [2] was 20% throughout.

In turn, “[35S]atToc159-K868R (from UniProt O81283 1-1503) (receptor)” had a percent less binding than wild-type atToc159 in assay [1] of 60%.

Regarding “[35S]atToc159G (in vitro-translated G domain of atToc159) (domain or fragment)”, the fold higher binding than to Fd-protAHis in assay [1] turned out to be 3 fold.
